Tests used:
[1] = Standard mogroside biocatalytic assay, mogroside V substrate; assay type: biochemical; settings: 37 C., pH 5.6; for Initial Rate / Reaction Progress / Sia 1: Mogroside hydrolysis; for Reaction Progress / Sia 1 / Sia:MogIII / Sia:MogIV: 72 h; for Sia:MogIII / Sia:MogIV: product ratio
Experimental: Standard mogroside biocatalytic assays were performed at 37° C. in 500 μL, volume 50 mM sodium citrate buffer pH 5.6, 10 mM magnesium chloride, 10 mM substrate (typically mogroside V) and 50 μg mL−1 enzyme, and incubated for 24-96 hours. Mogroside glucosidation activity was detected by direct HPLC detection and quantification of mogroside V substrate and mogroside products from filtered reaction supernatant, and quantified by comparison with standard curves based on peak.
Mogroside compounds HPLC separation and quantification was conducted using a Synergi Hydro-RP column (250 mm×4.6 mm or 150 mm×4.6 mm) with an initial flow rate of 1 mL min−1 and a water: acetonitrile gradient as per below, similar to that described by Zhou et al. (WO 2014/150127). Compounds were detected at 210 nm using diode array detector (Agilent Technologies, USA), and calibration curves established using standard curves from 0.1 to 10 mM.
(§1) Cells expressing enzyme variants grown in buffered minimal medium were induced for 72 hr with 1% methanol (refreshed every 24 hr), the culture supernatant harvested and assayed for standard ONPG activity over 30 minutes and mogroside V activity at pH 5.6, 37° C. for 72 hrs. The resultant activity data (Table 2) identified E200 and D258 as the likely catalytic pair for acid/base and nucleophilic attack of mogroside V by the A. oryzae β-glucosidase enzyme.

[2] = β-galactosidase ONPG activity assay; assay type: biochemical; settings: oNPG substrate, over 30 minutes
Experimental: Standard β-galactosidase assays were performed at room temperature using o-nitrophenyl-β-D-galactopyranoside (ONPG, Sigma) as a substrate in […] with detection of o-nitrophenol release at 420 nm (UV-Spectra Max Spectrophotometer, Molecular Devices, USA). A typical reaction contained 50 mM sodium citrate buffer pH 5.6, 10 mM magnesium chloride and 100 mM potassium chloride with 2 mM ONPG and the desired amount of enzyme (usually […]). Partially purified AoBG (Sigma G5160, USA) was used as a positive control at a final concentration of 1 U mL−1. Vmax was calculated using the SpectraMax Plus software (Molecular Devices, USA) and when required kinetics were determined by varying the concentration of substrate and kinetic determinants calculated using Hyper™ (J. S. Easterby, Liverpool University).
as §1

| Molecule | Initial Rate [1] | Reaction Progress [1] | Sia 1 [1] | Sia:MogIII [1] | Sia:MogIV [1] | oNPG [2] |
| --- | --- | --- | --- | --- | --- | --- |
| E142Q: A. oryzae β-galactosidase variant, E142Q (protein, UniProt Q2UCU3 19-1005, looked up, variant E142Q) Beta-galactosidase A: ASIKHRLNGFTILEHPDPAKRDLLQDIVTWDDKSLFINGERIMLFSGEVHPFRLPVPSLWLDIFHKIRALGFNCVSFYIDWALLEGKPGDYRAEGIFALEPFFDAAKEAGIYLIARPGSYINAQVSGGGFPGWLQRVNGTLRSSDEPFLKATDNYIANAAAAVAKAQITNGGPVILYQPENEYSGGCCGVKYPDADYMQYVMDQARKADIVVPFISNDASPSGHNAPGSGTGAVDIYGHDSYPLGFDCANPSVWPEGKLPDNFRTLHLEQSPSTPYSLLEFQAGAFDPWGGPGFEKCYALVNHEFSRVFYRNDLSFGVSTFNLYMTFGGTNWGNLGHPGGYTSYDYGSPITETRNVTREKYSDIKLLANFVKASPSYLTATPRNLTTGVYTDTSDLAVTPLIGDSPGSFFVVRHTDYSSQESTSYKLKLPTSAGNLTIPQLEGTLSLNGRDSKIHVVDYNVSGTNIIYSTAEVFTWKKFDGNKVLVLYGGPKEHHELAIASKSNVTIIEGSDSGIVSTRKGSSVIIGWDVSSTRRIVQVGDLRVFLLDRNSAYNYWVPELPTEGTSPGFSTSKTTASSIIVKAGYLLRGAHLDGADLHLTADFNATTPIEVIGAPTGAKNLFVNGEKASHTVDKNGIWSSEVKYAAPEIKLPGLKDLDWKYLDTLPEIKSSYDDSAWVSADLPKTKNTHRPLDTPTSLYSSDYGFHTGYLIYRGHFVANGKESEFFIRTQGGSAFGSSVWLNETYLGSWTGADYAMDGNSTYKLSQLESGKNYVITVVIDNLGLDENWTVGEETMKNPRGILSYKLSGQDASAITWKLTGNLGGEDYQDKVRGPLNEGGLYAERQGFHQPQPPSESWESGSPLEGLSKPGIGFYTAQFDLDLPKGWDVPLYFNFGNNTQAARAQLYVNGYQYGKFTGNVGPQTSFPVPEGILNYRGTNYVALSLWALESDGAKLGSFELSYTTPVLTGYGNVESPEQPKYEQRKGAY | 2.05 µmol/min/mg | 88% | 43% | 3.8 | 2.2 | 34.6 ± 0.5 mAu/min/mg |
| E298A: A. oryzae β-galactosidase variant, E298A (protein, UniProt Q2UCU3 19-1005, looked up, variant E298A) Beta-galactosidase A: ASIKHRLNGFTILEHPDPAKRDLLQDIVTWDDKSLFINGERIMLFSGEVHPFRLPVPSLWLDIFHKIRALGFNCVSFYIDWALLEGKPGDYRAEGIFALEPFFDAAKEAGIYLIARPGSYINAEVSGGGFPGWLQRVNGTLRSSDEPFLKATDNYIANAAAAVAKAQITNGGPVILYQPENEYSGGCCGVKYPDADYMQYVMDQARKADIVVPFISNDASPSGHNAPGSGTGAVDIYGHDSYPLGFDCANPSVWPEGKLPDNFRTLHLEQSPSTPYSLLAFQAGAFDPWGGPGFEKCYALVNHEFSRVFYRNDLSFGVSTFNLYMTFGGTNWGNLGHPGGYTSYDYGSPITETRNVTREKYSDIKLLANFVKASPSYLTATPRNLTTGVYTDTSDLAVTPLIGDSPGSFFVVRHTDYSSQESTSYKLKLPTSAGNLTIPQLEGTLSLNGRDSKIHVVDYNVSGTNIIYSTAEVFTWKKFDGNKVLVLYGGPKEHHELAIASKSNVTIIEGSDSGIVSTRKGSSVIIGWDVSSTRRIVQVGDLRVFLLDRNSAYNYWVPELPTEGTSPGFSTSKTTASSIIVKAGYLLRGAHLDGADLHLTADFNATTPIEVIGAPTGAKNLFVNGEKASHTVDKNGIWSSEVKYAAPEIKLPGLKDLDWKYLDTLPEIKSSYDDSAWVSADLPKTKNTHRPLDTPTSLYSSDYGFHTGYLIYRGHFVANGKESEFFIRTQGGSAFGSSVWLNETYLGSWTGADYAMDGNSTYKLSQLESGKNYVITVVIDNLGLDENWTVGEETMKNPRGILSYKLSGQDASAITWKLTGNLGGEDYQDKVRGPLNEGGLYAERQGFHQPQPPSESWESGSPLEGLSKPGIGFYTAQFDLDLPKGWDVPLYFNFGNNTQAARAQLYVNGYQYGKFTGNVGPQTSFPVPEGILNYRGTNYVALSLWALESDGAKLGSFELSYTTPVLTGYGNVESPEQPKYEQRKGAY | 2.08 µmol/min/mg | 85% | 52% | 3.5 | 2.1 | 6.3 ± 0.1 mAu/min/mg |
| D258A, E298A: A. oryzae β-galactosidase double variant D258A, E298A (protein, UniProt Q2UCU3 19-1005, looked up, variant D258A E298A) Beta-galactosidase A: ASIKHRLNGFTILEHPDPAKRDLLQDIVTWDDKSLFINGERIMLFSGEVHPFRLPVPSLWLDIFHKIRALGFNCVSFYIDWALLEGKPGDYRAEGIFALEPFFDAAKEAGIYLIARPGSYINAEVSGGGFPGWLQRVNGTLRSSDEPFLKATDNYIANAAAAVAKAQITNGGPVILYQPENEYSGGCCGVKYPDADYMQYVMDQARKADIVVPFISNDASPSGHNAPGSGTGAVDIYGHASYPLGFDCANPSVWPEGKLPDNFRTLHLEQSPSTPYSLLAFQAGAFDPWGGPGFEKCYALVNHEFSRVFYRNDLSFGVSTFNLYMTFGGTNWGNLGHPGGYTSYDYGSPITETRNVTREKYSDIKLLANFVKASPSYLTATPRNLTTGVYTDTSDLAVTPLIGDSPGSFFVVRHTDYSSQESTSYKLKLPTSAGNLTIPQLEGTLSLNGRDSKIHVVDYNVSGTNIIYSTAEVFTWKKFDGNKVLVLYGGPKEHHELAIASKSNVTIIEGSDSGIVSTRKGSSVIIGWDVSSTRRIVQVGDLRVFLLDRNSAYNYWVPELPTEGTSPGFSTSKTTASSIIVKAGYLLRGAHLDGADLHLTADFNATTPIEVIGAPTGAKNLFVNGEKASHTVDKNGIWSSEVKYAAPEIKLPGLKDLDWKYLDTLPEIKSSYDDSAWVSADLPKTKNTHRPLDTPTSLYSSDYGFHTGYLIYRGHFVANGKESEFFIRTQGGSAFGSSVWLNETYLGSWTGADYAMDGNSTYKLSQLESGKNYVITVVIDNLGLDENWTVGEETMKNPRGILSYKLSGQDASAITWKLTGNLGGEDYQDKVRGPLNEGGLYAERQGFHQPQPPSESWESGSPLEGLSKPGIGFYTAQFDLDLPKGWDVPLYFNFGNNTQAARAQLYVNGYQYGKFTGNVGPQTSFPVPEGILNYRGTNYVALSLWALESDGAKLGSFELSYTTPVLTGYGNVESPEQPKYEQRKGAY | – | – | – | – | – | INACTIVE |
| E298Q: A. oryzae β-galactosidase variant, E298Q (protein, UniProt Q2UCU3 19-1005, looked up, variant E298Q) Beta-galactosidase A: ASIKHRLNGFTILEHPDPAKRDLLQDIVTWDDKSLFINGERIMLFSGEVHPFRLPVPSLWLDIFHKIRALGFNCVSFYIDWALLEGKPGDYRAEGIFALEPFFDAAKEAGIYLIARPGSYINAEVSGGGFPGWLQRVNGTLRSSDEPFLKATDNYIANAAAAVAKAQITNGGPVILYQPENEYSGGCCGVKYPDADYMQYVMDQARKADIVVPFISNDASPSGHNAPGSGTGAVDIYGHDSYPLGFDCANPSVWPEGKLPDNFRTLHLEQSPSTPYSLLQFQAGAFDPWGGPGFEKCYALVNHEFSRVFYRNDLSFGVSTFNLYMTFGGTNWGNLGHPGGYTSYDYGSPITETRNVTREKYSDIKLLANFVKASPSYLTATPRNLTTGVYTDTSDLAVTPLIGDSPGSFFVVRHTDYSSQESTSYKLKLPTSAGNLTIPQLEGTLSLNGRDSKIHVVDYNVSGTNIIYSTAEVFTWKKFDGNKVLVLYGGPKEHHELAIASKSNVTIIEGSDSGIVSTRKGSSVIIGWDVSSTRRIVQVGDLRVFLLDRNSAYNYWVPELPTEGTSPGFSTSKTTASSIIVKAGYLLRGAHLDGADLHLTADFNATTPIEVIGAPTGAKNLFVNGEKASHTVDKNGIWSSEVKYAAPEIKLPGLKDLDWKYLDTLPEIKSSYDDSAWVSADLPKTKNTHRPLDTPTSLYSSDYGFHTGYLIYRGHFVANGKESEFFIRTQGGSAFGSSVWLNETYLGSWTGADYAMDGNSTYKLSQLESGKNYVITVVIDNLGLDENWTVGEETMKNPRGILSYKLSGQDASAITWKLTGNLGGEDYQDKVRGPLNEGGLYAERQGFHQPQPPSESWESGSPLEGLSKPGIGFYTAQFDLDLPKGWDVPLYFNFGNNTQAARAQLYVNGYQYGKFTGNVGPQTSFPVPEGILNYRGTNYVALSLWALESDGAKLGSFELSYTTPVLTGYGNVESPEQPKYEQRKGAY | 1.82 µmol/min/mg | 89% | 48% | 3.7 | 2.2 | 5.2 ± 0.1 mAu/min/mg |

— patent US12247238B2, “Mogroside biocatalysis methods and products” (The Coca-Cola Company, priority 2019, dated 2025)
